Fewer inactive variants are shown than the library holds.
B1: TPR 5TU (parent)
chain: GGAUCUUCUCGAUCUAACAAAAAAGACAAAUCUGCCACAAAGCUUGAGAGCAUCUUCGGAUGCAGAGGCGGCAGCCUUCGGUGGCGCGAUAGCGCCAACGUUCUCAACUAUGACACGCAAAACGCGUGCUCCGUUGAAUGGAGUUUAUCAUG

Variants of: B1
Assay: polymerase ribozyme fitness, log enrichment relative to wild type (log ratio); higher = more active; in vitro selection for triplet polymerase activity
Outline: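 Mutant libraries of each subunit of a heterodimeric triplet polymerase ribozyme were built by PCR and transcribed. Each library went through one round of in vitro selection in triplicate: annealing with biotinylated primer, partner subunit and triplets, frozen incubation at −7 °C, gel excision of extended constructs, streptavidin-bead capture and RT-PCR. Input and output libraries were Illumina-sequenced; only genotypes with ≥10 input reads and ≥1 read per output were kept. Fitness is log2(genotype enrichment/wild-type enrichment), using inverse-variance-weighted replicate averages.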
For GGAUCUUCUCGAUCUAACAAAAAAGACAAAUCUGCCACAAAGCUUGAGAGCAUCUUCGGAUGCAGAGGCGGCAGCCUUCGGUGGCGCGAUAGAGCCAACGUUCUCAACUAUGACACGCAAAACGCGCGCUCCGUUGAAUGGAGUUUAUCAUG, the “polymerase ribozyme fitness (log ratio)” value was -3.6.
For GGAUCUUCUCGAUCUAACAAAAAAGACAAAUCUGCCACAAAGCUUGAGAGCAUCUUCGGAUGCAGAGGCGGCAGCCUUCGGUGGCGCGAUAGAGCCAACGUUCCCAACUAUGACACGCAAAACGCGUGCUCCGUUGAAUGGAGUUUAUCAUG, the “polymerase ribozyme fitness (log ratio)” value was -3.27.
In the case of GGAUCUUCUCGAUCUAACAAAAAAGACAAAUCUGCCACAAAGCUUGAGAGCAUCUUCGGAUGCAGAGGCGGCAGCCUUCGGUGGCGCGAUAGGGCCAACGUUCUCAACUAUGACACGCAAAACGCGUGCUCGGUUGAAUGGAGUUUAUCAUG, the “polymerase ribozyme fitness (log ratio)” value is reported as at most -4.2.
For GGAUCUUCUCGAUCUAACAAAAAAGACAAAUCUGCCACAAAGCUUGAGAGCAUCUUCGGAUGCAGAGGCGGCAGCCUUCGGUGGCGCGAUAGUGCCAGCGUUCUCAACUAUGACACGCAAAACCCGUGCUCCGUUGAAUGGAGUUUAUCAUG, the “polymerase ribozyme fitness (log ratio)” value was -1.76.
With GGAUCUUCUCGAUCUAACAAAAAAGACAAAUCUGCCACAAAGCUUGAGAGCAUCUUCGGAUGCAGAGGCGGCAGCCUUCGGUGGCGCGAUAGUGCCAACGUUCUCAACUAUGACACGCAAAACGCGUGCUCCGUUGGAUGGAGUUUAUUAUG the “polymerase ribozyme fitness (log ratio)” value was -2.47.
With GGAUCUUCUCGAUCUAACAAAAAAGACAAAUCUGCCACAAAGCUUGAGAGCAUCUUCGGAUGCAGAGGCGGCAGCCUUCGGUGGCGCGAUAGGGCCAACGUUCUCAACUAUGACACGCUAAACGCGUGCUCCGUUGAAUGGAGUUUAUCAUG the “polymerase ribozyme fitness (log ratio)” value was -3.51.
With GGAUCUUCUCGAUCUAACAAAAAAGACAAAUCUGCCACAAAGCUUGAGAGCAUCUUCGGAUGCAGAGGCGGCAGCCUUCGGUGGCGCGAUAGAGCCAACGUUCUCAACUAUGACACGCAAAACCCGUGCUCCGUUGAAUGGAGUUUAUCAUG the “polymerase ribozyme fitness (log ratio)” value was -2.88.
With GGAUCUUCUCGAUCUAACAAAAAAGACAAAUCUGCCACAAAGCUUGAGAGCAUCUUCGGAUGCAGAGGCGGCAGCCUUCGGUGGCGCGAUAGGGCCAACGUUCUCAACUAUGACACGCAAAACGCGUGCUCCGUUGAAUGGGGUUUAUCAUG the “polymerase ribozyme fitness (log ratio)” value was -3.81.
With GGAUCUUCUCGAUCUAACAAAAAAGACAAAUCUGCCACAAAGCUUGAGAGCAUCUUCGGAUGCAGAGGCGGCAGCCUUCGGUGGCGCGAUAGGGCAAACGUUCUUAACUAUGACAUGCAAAACGCGUGCUCCGUUGAAUGGAGUUUAUCAUG the “polymerase ribozyme fitness (log ratio)” value was -4.17.
In the case of GGAUCUUCUCGAUCUAACAAAAAAGACAAAUCUGCCACAAAGCUUGAGAGCAUCUUCGGAUGCAGAGGCGGCAGCCUUCGGUGGCGCGAUAGGGCCAACGUUCUCAACUAUGACACGCAAAACGGGUGCUCCGUUGAAUGGAGUUUAUCUUG, the “polymerase ribozyme fitness (log ratio)” value is reported as -4.06.
For GGAUCUUCUCGAUCUAACAAAAAAGACAAAUCUGCCACAAAGCUUGAGAGCAUCUUCGGAUGCAGAGGCGGCAGCCUUCGGUGGCGCGAUAGGGCCAACGUUCUCAACUAUGACACGCAAAACGCGUGCUCCGUUGAAUGUAGUUUAUCAUG, the “polymerase ribozyme fitness (log ratio)” value was -2.01.
For GGAUCUUCUCGAUCUAACAAAAAAGACAAAUCUGCCACAAAGCUUGAGAGCAUCUUCGGAUGCAGAGGCGGCAGCCUUCGGUGGCGCGAUAGUGCCAACGUUCUCAACUAUGACACGCGAAAUGCGUGCUCCGUGGAAUGGAGUUUAUCAUG, the “polymerase ribozyme fitness (log ratio)” value was -4.18.
For GGAUCUUCUCGAUCUAACAAAAAAGACAAAUCUGCCACAAAGCUUGAGAGCAUCUUCGGAUGCAGAGGCGGCAGCCUUCGGUGGCGCGAUAGGGCCAACGUUCUCAACUAUGACACGCAAAACGCGUGCUCCGUUGAAUGGAGAUUAUCAUG, the “polymerase ribozyme fitness (log ratio)” value was -2.68.
In the case of GGAUCUUCUCGAUCUAACAAAAAAGACAAAUCUGCCACAAAGCUUGAGAGCAUCUUCGGAUGCAGAGGCGGCAGCCUUCGGUGGCGCGAUAGAGCCAACGUUCUCAACUAUGACACGCAAAACGCGUGCUCCGUUGAAUGGAAUUUAUCAUG, the “polymerase ribozyme fitness (log ratio)” value is reported as -2.78.
With GGAUCUUCUCGAUCUAACAAAAAAGACAAAUCUGCCACAAAGCUUGAGAGCAUCUUCGGAUGCAGAGGCGGCAGCCUUCGGUGGCGCGAUAGAGCCAACGUUCUCAACUAUGACACGCAAAACGCGUGCUCCGUUGAAUGAAGUUUAUCAUG the “polymerase ribozyme fitness (log ratio)” value was -1.74.
For GGAUCUUCUCGAUCUAACAAAAAAGACAAAUCUGCCACAAAGCUUGAGAGCAUCUUCGGAUGCAGAGGCGGCAGCCUUCGGUGGCGCGAUAGGGCCAACGUUCUCAACUAUGACACGCAAAACGCGUUCUCCGUUGAAUGGAGUUCAUCAUG, the “polymerase ribozyme fitness (log ratio)” value was at most -4.2.
In the case of GGAUCUUCUCGAUCUAACAAAAAAGACAAAUCUGCCACAAAGCUUGAGAGCAUCUUCGGAUGCAGAGGCGGCAGCCUUCGGUGGCGCGAUAGUGCCAAAGUUCUCAACUAUGACACGCAAAACGCGUCCUCCGUUGAAUGGAGUUUAUCAUG, the “polymerase ribozyme fitness (log ratio)” value is reported as at most -4.2.
For GGAUCUUCUCGAUCUAACAAAAAAGACAAAUCUGCCACAAAGCUUGAGAGCAUCUUCGGAUGCAGAGGCGGCAGCCUUCGGUGGCGCGAUAGGGCCAACGUUCUCAUCUAUGACACGCAAAACGCGUGCUCCGUUGAAUGGAGUUUAUCAUG, the “polymerase ribozyme fitness (log ratio)” value was -4.14.
With GGAUCUUCUCGAUCUAACAAAAAAGACAAAUCUGCCACAAAGCUUGAGAGCAUCUUCGGAUGCAGAGGCGGCAGCCUUCGGUGGCGCGAUAGGUCCAACGUUCUCAAGUAUGACACGCAAAACGCGUGCUCCGUUGAAUGGAGUUUAUCAUG the “polymerase ribozyme fitness (log ratio)” value was at most -4.2.
In the case of GGAUCUUCUCGAUCUAACAAAAAAGACAAAUCUGCCACAAAGCUUGAGAGCAUCUUCGGAUGCAGAGGCGGCAGCCUUCGGUGGCGCGAUAGUGCCAACGUUCUCAACUAUGACACGCAAAUCGCGUGCUCCGUUGAAUGGAGUUUAUCAUG, the “polymerase ribozyme fitness (log ratio)” value is reported as -0.696.
In the case of GGAUCUUCUCGAUCUAACAAAAAAGACAAAUCUGCCACAAAGCUUGAGAGCAUCUUCGGAUGCAGAGGCGGCAGCCUUCGGUGGCGCGAUAGUGUCAACGUUCUCAACUAUGACACGCAAAACGCGUGCUCCGUUGAAUGGAGUUUAUCAUG, the “polymerase ribozyme fitness (log ratio)” value is reported as -2.43.
In the case of GGAUCUUCUCGAUCUAACAAAAAAGACAAAUCUGCCACAAAGCUUGAGAGCAUCUUCGGAUGCAGAGGCGGCAGCCUUCGGUGGCGCGAUAGUGCCACCGUUCUCAACUAUGACACGCAAAACGCGUGCUCCGUUGAAUGGAGUUUAUCAUG, the “polymerase ribozyme fitness (log ratio)” value is reported as -0.981.
With GGAUCUUCUCGAUCUAACAAAAAAGACAAAUCUGCCACAAAGCUUGAGAGCAUCUUCGGAUGCAGAGGCGGCAGCCUUCGGUGGCGCGAUAGGGCCAACGUUCUCAACUAUGAUACGCAAAACGCGUGCUCCGUUGAAUGGAGUUUAUCAUG the “polymerase ribozyme fitness (log ratio)” value was -3.97.
In the case of GGAUCUUCUCGAUCUAACAAAAAAGACAAAUCUGCCACAAAGCUUGAGAGCAUCUUCGGAUGCAGAGGCGGCAGCCUUCGGUGGCGCGAUAGGGCCAACGUUCUCAACUAUGACACGCAAAACGCGUGCUCCGUUGAAUUGAGUUUAUCAUG, the “polymerase ribozyme fitness (log ratio)” value is reported as at most -4.2.
For GGAUCUUCUCGAUCUAACAAAAAAGACAAAUCUGCCACAAAGCUUGAGAGCAUCUUCGGAUGCAGAGGCGGCAGCCUUCGGUGGCGCGAUAGAGCCAACGUACUCAACUAUGACACGCAAAACGCGUGCUCCGUUGCAUGGAGUUUAUCAUG, the “polymerase ribozyme fitness (log ratio)” value was at most -4.2.
For GGAUCUUCUCGAUCUAACAAAAAAGACAAAUCUGCCACAAAGCUUGAGAGCAUCUUCGGAUGCAGAGGCGGCAGCCUUCGGUGGCGCGAUAGGGCCAACGUUCUCAACUAUGACACGUAAAAUGCGUGCUCCGUUGAAUGGAGUUUAUCAUG, the “polymerase ribozyme fitness (log ratio)” value was -3.29.
For GGAUCUUCUCGAUCUAACAAAAAAGACAAAUCUGCCACAAAGCUUGAGAGCAUCUUCGGAUGCAGAGGCGGCAGCCUUCGGUGGCGCGAUAGGGCCAACGUUCUCAACUAUGACACGCAAAACGCGUGCUCCGUUGAAUGGAGUUGAUCAUG, the “polymerase ribozyme fitness (log ratio)” value was -3.41.
In the case of GGAUCUUCUCGAUCUAACAAAAAAGACAAAUCUGCCACAAAGCUUGAGAGCAUCUUCGGAUGCAGAGGCGGCAGCCUUCGGUGGCGCGAUAGUGCCAACGUUCUCAACUAUGACACGCAAAACGCGUGCUCCGUUGGAUGGAGUUUAUCAUG, the “polymerase ribozyme fitness (log ratio)” value is reported as -3.18.
For GGAUCUUCUCGAUCUAACAAAAAAGACAAAUCUGCCACAAAGCUUGAGAGCAUCUUCGGAUGCAGAGGCGGCAGCCUUCGGUGGCGCGAUAGGGCCAACGUUCUCAACUAUGACACGCAAAUCGCGUGCUCCGUUGAAUGGAGUUUAUCAUG, the “polymerase ribozyme fitness (log ratio)” value was -2.98.
With GGAUCUUCUCGAUCUAACAAAAAAGACAAAUCUGCCACAAAGCUUGAGAGCAUCUUCGGAUGCAGAGGCGGCAGCCUUCGGUGGCGCGAUAGUGGCAACGUUCUCAACUAUGGCACGCAAAACGCGUGCUCCGUUGUUUGGAGUUUAUCAUG the “polymerase ribozyme fitness (log ratio)” value was at most -4.2.
With GGAUCUUCUCGAUCUAACAAAAAAGACAAAUCUGCCACAAAGCUUGAGAGCAUCUUCGGAUGCAGAGGCGGCAGCCUUCGGUGGCGCGAUAGUGCCAACGUUCUCAACUAUGACACGCUAAACGCGUGCUCCGUUGAAUGAAGUUUAUCAUG the “polymerase ribozyme fitness (log ratio)” value was -0.528.
In the case of GGAUCUUCUCGAUCUAACAAAAAAGACAAAUCUGCCACAAAGCUUGAGAGCAUCUUCGGAUGCAGAGGCGGCAGCCUUCGGUGGCGCGAUAGGGCCAACGUUCUCAAGUAUGACAGGCAAAACGCGUGCUCCCUUGAAUGGAGUUUAUCAUG, the “polymerase ribozyme fitness (log ratio)” value is reported as -3.85.
For GGAUCUUCUCGAUCUAACAAAAAAGACAAAUCUGCCACAAAGCUUGAGAGCAUCUUCGGAUGCAGAGGCGGCAGCCUUCGGUGGCGCGAUAGAGCCAACGUUCUCAACUAUGACACGCAAAACGCGUGCUCCGUUGAAUGGAGUUUACCAUG, the “polymerase ribozyme fitness (log ratio)” value was -3.62.
With GGAUCUUCUCGAUCUAACAAAAAAGACAAAUCUGCCACAAAGCUUGAGAGCAUCUUCGGAUGCAGAGGCGGCAGCCUUCGGUGGCGCGAUAGAGCCAACGUUCUCAACUAUGACACGCAAAACGCGUGCUCCGUUGAAUGGAGUUUAGCAUG the “polymerase ribozyme fitness (log ratio)” value was at most -4.2.
For GGAUCUUCUCGAUCUAACAAAAAAGACAAAUCUGCCACAAAGCUUGAGAGCAUCUUCGGAUGCAGAGGCGGCAGCCUUCGGUGGCGCGAUAGGGCCAUCGUUCUCAACUAUGAAACGCAAAACGCGUGCUCCGUUGAAUGGAGUUUAUCAUG, the “polymerase ribozyme fitness (log ratio)” value was -3.85.
With GGAUCUUCUCGAUCUAACAAAAAAGACAAAUCUGCCACAAAGCUUGAGAGCAUCUUCGGAUGCAGAGGCGGCAGCCUUCGGUGGCGCGAUAGGGCCACCGUUCUCAACUAUGACACGCAAAACGCGUGCUCCGUUGAAUGGACUUUAUCAUG the “polymerase ribozyme fitness (log ratio)” value was -4.05.
For GGAUCUUCUCGAUCUAACAAAAAAGACAAAUCUGCCACAAAGCUUGAGAGCAUCUUCGGAUGCAGAGGCGGCAGCCUUCGGUGGCGCGAUAGUGCCAGCGUUAUCAACUAUGACACGCAAAACGCGUGCUCCGUUGAAUGGAGUUUAUCAUG, the “polymerase ribozyme fitness (log ratio)” value was -2.73.
In the case of GGAUCUUCUCGAUCUAACAAAAAAGACAAAUCUGCCACAAAGCUUGAGAGCAUCUUCGGAUGCAGAGGCGGCAGCCUUCGGUGGCGCGAUAGUGCCAACGUUCUCAACUAUGACACGCAACACGCGUGCUCCGUUGAAUCGAGUUUAUCAUG, the “polymerase ribozyme fitness (log ratio)” value is reported as at most -4.2.

Reference: the RNAGym collection of RNA variant scans (doi:10.1073/pnas.2313332121)
